Columns and labels:
[1] = system: HeLa Kyoto; assay: melting temperature (median over replicates), in situ; higher = more thermally stable
[2] = system: HeLa Kyoto; assay: solubility change mitosis vs G1/S (difference of NP-40 vs SDS log2 ratios) (log2 ratio difference); higher = more soluble in mitosis
[3] = system: HeLa Kyoto; assay: solubility in G1/S (NP-40 vs SDS abundance) (log2 ratio); higher = more soluble; settings: cell cycle stage: G1/S
[4] = system: HeLa Kyoto; assay: thermal stability score vs G1/S (z-score of summed log2 fold changes over temperatures); higher = more thermally stable than in G1/S
[5] = cell cycle stage: early G1 (4.5 h after nocodazole release)
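For melting temperature (median over replicates), in situ in this document: HeLa Kyoto cells synchronized by double thymidine or nocodazole block, proteins quantified by TMT10plex mass spectrometry, three independent biological replicates.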
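For solubility change mitosis vs G1/S (difference of NP-40 vs SDS log2 ratios) in this document: synchronized HeLa Kyoto cells (double thymidine block for G1/S, nocodazole release for mitosis), protein amounts in NP-40 versus SDS lysates quantified by mass spectrometry, three biological replicates.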
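For solubility in G1/S (NP-40 vs SDS abundance) in this document: HeLa Kyoto cells arrested at G1/S by double thymidine block, proteins quantified by TMT10plex mass spectrometry in mild NP-40 versus SDS extracts, three biological replicates.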
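For thermal stability score vs G1/S (z-score of summed log2 fold changes over temperatures) in this document: synchronized HeLa Kyoto cells, proteins quantified by TMT10plex mass spectrometry, three biological replicates, mitosis taken 0.5 h after nocodazole release, G1/S directly after double thymidine block.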

Which melting temperature ([1]; cell cycle stage: G1/S) does the source give for “MASILLRSCRGRAPARLPPPPRYTVPRGSPGDPAHLSCASTLGLRNCLNVPFGCCTPIHPVYTSSRGDHLGCWALRPECLRIVSRAPWTSTSVGFVAVGPQCLPVRGWHSSRPVRDDSVVEKSLKSLKDKNKKLEEGGPVYSPPAEVVVKKSLGQRVLDELKHYYHGFRLLWIDTKIAARMLWRILNGHSLTRRERRQFLRICADLFRLVPFLVFVVVPFMEFLLPVAVKLFPNMLPSTFETQSLKEERLKKELRVKLELAKFLQDTIEEMALKNKAAKGSATKDFSVFFQKIRETGERPSNEEIMRFSKLFEDELTLDNLTRPQLVALCKLLELQSIGTNNFLRFQLTMRLRSIKADDKLIAEEGVDSLNVKELQAACRARGMRALGVTEDRLRGQLKQWLDLHLHQEIPTSLLILSRAMYLPDTLSPADQLKSTLQTLPEIVAKEAQVKVAEVEGEQVDNKAKLEATLQEEAAIQQEHREKELQKRSEVAKDFEPERVVAAPQRPGTEPQPEMPDTVLQSETLKDTAPVLEGLKEEEITKEEIDILSDACSKLQEQKKSLTKEKEELELLKEDVQDYSEDLQEIKKELSKTGEEKYVEESKASKRLTKRVQQMIGQIDGLISQLEMDQQAGKLAPANGMPTGENVISVAELINAMKQVKHIPESKLTSLAAALDENKDGKVNIDDLVKVIELVDKEDVHISTSQVAEIVATLEKEEKVEEKEKAKEKAEKEVAEVKS [LETM1]” here?
Its melting temperature is 52.9 °C.

What about the melting temperature ([1]; cell cycle stage: mitosis) of the same sequence?
The melting temperature was 52.3 °C.

And the “solubility change mitosis (log2)” value [2]?
Its value is -0.0749.

And the “solubility in G1/S (log2)” value [3]?
Its value is 0.088.

What about the thermal stability score [4, 5] of the same sequence?
The thermal stability score was -0.277.

What about the thermal stability score ([4]; cell cycle stage: mitosis) of the same sequence?
The thermal stability score was -1.56.

For “MAVTITLKTLQQQTFKIRMEPDETVKVLKEKIEAEKGRDAFPVAGQKLIYAGKILSDDVPIRDYRIDEKNFVVVMVTKTKAGQGTSAPPEASPTAAPESSTSFPPAPTSGMSHPPPAAREDKSPSEESAPTTSPESVSGSVPSSGSSGREEDAASTLVTGSEYETMLTEIMSMGYERERVVAALRASYNNPHRAVEYLLTGIPGSPEPEHGSVQESQVSEQPATEAAGENPLEFLRDQPQFQNMRQVIQQNPALLPALLQQLGQENPQLLQQISRHQEQFIQMLNEPPGELADISDVEGEVGAIGEEAPQMNYIQVTPQEKEAIERLKALGFPESLVIQAYFACEKNENLAANFLLSQNFDDE [RAD23A]”, which melting temperature ([1]; cell cycle stage: G1/S) is on record?
The melting temperature was 56.3 °C.

What about the melting temperature ([1]; cell cycle stage: mitosis) of the same sequence?
The melting temperature was 55.5 °C.

What about the “solubility change mitosis (log2)” value [2] of the same sequence?
Its value is 0.0994.

And the “solubility in G1/S (log2)” value [3]?
The value was 0.0728.

What about the thermal stability score [4, 5] of the same sequence?
The thermal stability score was -1.83.

What about the thermal stability score ([4]; cell cycle stage: mitosis) of the same sequence?
Its thermal stability score is -1.48.

Which melting temperature ([1]; cell cycle stage: G1/S) does the source give for “MAARQAVGSGAQETCGLDRILEALKLLLSPGGSGSSSLQVTKHDVLLATLKSNLSALEDKFLKDPQWKNLKLLRDEIADKAEWPQNSVDVTWSFTSQTLLLLLCLKETMIRLAANFNPGKPNPRTPEVAPALSPDALSISQQKTVQFVLQFVVTLGICPYLMPGVGVPLRYRTEFGAVVQDVVCFDAAPDATRRLYTSCKALLNVAQHTSLGSLIFCHHFGDIAAGLCQLGFCPTKRKLLTPAEEVLTEEERTLSRGALRDMLDQVYQPLAVRELLILQGGPPQSCTDVKTQMRCRAPAWLRRLCGQLLSERLMRPNGVQAVVRGILEGAGAGAAGGSDAEVTAADWKKCDLIAKILASCPQQSLSPENYYRDICPQVLDLFHFQDKLTARQFQRVATTTFITLSRERPHLAAKYLLQPVLAPLHRCLNTAELSESDMVPGTILVTEEELSRCIEDVFKVYVVGNEPLTVLMDSLLPVLGVLFLLYCFTKQSVSHIRSLCQEILLWILGKLERKKAIASLKGFAGLDKAVPSLHSLCQFRVATQGGIMITIKEAISDEDEDEALYQKVSSEQGRVEHLGDLLSHCQECGLAGDFFIFCLKELTHVASENETELKTEPFSSKSLLELEQHQTLLVEGQERKLLVLQLMAVLCERMSEQIFTNVTQVVDFVAATLQRACASLAHQAESTVESQTLSMSMGLVAVMLGGAVQLKSSDFAVLKQLLPLLEKVSNTYPDPVIQELAVDLRITISTHGAFATEAVSMAAQSTLNRKDLEGKIEEQQQTSHERPTDVAHSHLEQQQSHETAPQTGLQSNAPIIPQGVNEPSTTTSQKSGSVTTEQLQEVLLSAYDPQIPTRAAALRTLSHWIEQREAKALEMQEKLLKIFLENLEHEDTFVYLSAIQGVALLSDVYPEKILPDLLAQYDSSKDKHTPETRMKVGEVLMRIVRALGDMVSKYREPLIHTFLRGVRDPDGAHRASSLANLGELCQRLDFLLGSVVHEVTACLIAVAKTDGEVQVRRAAIHVVVLLLRGLSQKATEVLSAVLKDLYHLLKHVVCLEPDDVAKLHAQLALEELDDIMKNFLFPPQKLEKKIMVLP [TANGO6]” here?
The melting temperature was 50.6 °C.

What about the melting temperature ([1]; cell cycle stage: mitosis) of the same sequence?
The melting temperature was 50.3 °C.

What about the “solubility change mitosis (log2)” value [2] of the same sequence?
Its value is -0.193.

What about the “solubility in G1/S (log2)” value [3] of the same sequence?
Its value is -0.171.

What about the thermal stability score [4, 5] of the same sequence?
Its thermal stability score is 0.0292.

What about the thermal stability score ([4]; cell cycle stage: mitosis) of the same sequence?
The thermal stability score was 0.767.

With “MRLHLLLLLALCGAGTTAAELSYSLRGNWSICNGNGSLELPGAVPGCVHSALFQQGLIQDSYYRFNDLNYRWVSLDNWTYSKEFKIPFEISKWQKVNLILEGVDTVSKILFNEVTIGETDNMFNRYSFDITNVVRDVNSIELRFQSAVLYAAQQSKAHTRYQVPPDCPPLVQKGECHVNFVRKEQCSFSWDWGPSFPTQGIWKDVRIEAYNICHLNYFTFSPIYDKSAQEWNLEIESTFDVVSSKPVGGQVIVAIPKLQTQQTYSIELQPGKRIVELFVNISKNITVETWWPHGHGNQTGYNMTVLFELDGGLNIEKSAKVYFRTVELIEEPIKGSPGLSFYFKINGFPIFLKGSNWIPADSFQDRVTSELLRLLLQSVVDANMNTLRVWGGGIYEQDEFYELCDELGIMVWQDFMFACALYPTDQGFLDSVTAEVAYQIKRLKSHPSIIIWSGNNENEEALMMNWYHISFTDRPIYIKDYVTLYVKNIRELVLAGDKSRPFITSSPTNGAETVAEAWVSQNPNSNYFGDVHFYDYISDCWNWKVFPKARFASEYGYQSWPSFSTLEKVSSTEDWSFNSKFSLHRQHHEGGNKQMLYQAGLHFKLPQSTDPLRTFKDTIYLTQVMQAQCVKTETEFYRRSRSEIVDQQGHTMGALYWQLNDIWQAPSWASLEYGGKWKMLHYFAQNFFAPLLPVGFENENTFYIYGVSDLHSDYSMTLSVRVHTWSSLEPVCSRVTERFVMKGGEAVCLYEEPVSELLRRCGNCTRESCVVSFYLSADHELLSPTNYHFLSSPKEAVGLCKAQITAIISQQGDIFVFDLETSAVAPFVWLDVGSIPGRFSDNGFLMTEKTRTILFYPWEPTSKNELEQSFHVTSLTDIY [MANBA]” as the sequence, how does the melting temperature ([1]; cell cycle stage: G1/S) read?
Its melting temperature is 55.6 °C.

And the melting temperature ([1]; cell cycle stage: mitosis)?
Its melting temperature is 56 °C.

And the “solubility change mitosis (log2)” value [2]?
The value was -0.0887.

And the “solubility in G1/S (log2)” value [3]?
The value was -0.0999.

What about the thermal stability score [4, 5] of the same sequence?
The thermal stability score was -1.93.

What about the thermal stability score ([4]; cell cycle stage: mitosis) of the same sequence?
The thermal stability score was -0.28.

What does the source list for “MAAPSGGVNCEEFAEFQELLKVMRTIDDRIVHELNTTVPTASFAGKIDASQTCKQLYESLMAAHASRDRVIKNCIAQTSAVVKNLREEREKNLDDLTLLKQLRKEQTKLKWMQSELNVEEVVNDRSWKVFNERCRIHFKPPKNE [CCDC58]”?
melting temperature ([1]; cell cycle stage: G1/S): 53.3 °C; melting temperature ([1]; cell cycle stage: mitosis): 52.6 °C; solubility change mitosis (log2) [2]: 0.251; solubility in G1/S (log2) [3]: 0.6; thermal stability score [4, 5]: -0.935; thermal stability score ([4]; cell cycle stage: mitosis): -0.43
